From patent US20130005646A1 (Novo Nordisk, published 2013) come the findings set out here.

Holding throughout (assay): cell-based or functional assay
The target of test [1] is T1, human amylin 3(a) receptor (human calcitonin receptor + RAMP-3) (human, UniProt P30988 25-474; O60896 24-148).
T1 sequence (looked up) 1: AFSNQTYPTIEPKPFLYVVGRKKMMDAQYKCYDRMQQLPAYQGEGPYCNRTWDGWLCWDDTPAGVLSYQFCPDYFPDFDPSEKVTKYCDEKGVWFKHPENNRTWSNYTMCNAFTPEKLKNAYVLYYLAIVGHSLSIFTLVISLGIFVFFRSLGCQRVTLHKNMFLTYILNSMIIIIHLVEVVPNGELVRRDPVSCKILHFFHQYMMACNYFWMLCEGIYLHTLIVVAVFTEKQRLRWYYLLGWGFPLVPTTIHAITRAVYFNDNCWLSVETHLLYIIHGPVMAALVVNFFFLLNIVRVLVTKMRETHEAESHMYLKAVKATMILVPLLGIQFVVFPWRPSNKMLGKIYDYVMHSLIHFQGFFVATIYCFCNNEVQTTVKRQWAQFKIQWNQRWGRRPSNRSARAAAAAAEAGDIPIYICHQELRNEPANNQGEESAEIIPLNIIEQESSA
T1 sequence (looked up) 2: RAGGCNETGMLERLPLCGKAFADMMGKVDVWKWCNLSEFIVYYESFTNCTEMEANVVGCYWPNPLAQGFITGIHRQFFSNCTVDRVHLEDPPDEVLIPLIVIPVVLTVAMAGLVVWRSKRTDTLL

Test [2] concerns the target T2, rat amylin 3(a) receptor (rat calcitonin(a) receptor + rat RAMP3) (rat, UniProt P32214 25-516; Q9JJ73 23-147).
T2 sequence (looked up) 1: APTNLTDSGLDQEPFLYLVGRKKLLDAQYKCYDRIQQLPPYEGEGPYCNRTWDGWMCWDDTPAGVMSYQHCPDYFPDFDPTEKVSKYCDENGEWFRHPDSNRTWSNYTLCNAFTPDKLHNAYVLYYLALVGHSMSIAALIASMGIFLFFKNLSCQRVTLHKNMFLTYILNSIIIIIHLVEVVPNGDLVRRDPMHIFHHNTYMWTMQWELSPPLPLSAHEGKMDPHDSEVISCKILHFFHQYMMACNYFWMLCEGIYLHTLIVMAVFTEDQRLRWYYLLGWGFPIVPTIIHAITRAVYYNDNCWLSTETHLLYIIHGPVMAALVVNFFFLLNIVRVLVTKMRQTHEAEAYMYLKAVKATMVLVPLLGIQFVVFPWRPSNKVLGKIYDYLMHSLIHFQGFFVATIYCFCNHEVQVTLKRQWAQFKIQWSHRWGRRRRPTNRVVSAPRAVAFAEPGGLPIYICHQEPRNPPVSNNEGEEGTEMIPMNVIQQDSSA
T2 sequence (looked up) 2: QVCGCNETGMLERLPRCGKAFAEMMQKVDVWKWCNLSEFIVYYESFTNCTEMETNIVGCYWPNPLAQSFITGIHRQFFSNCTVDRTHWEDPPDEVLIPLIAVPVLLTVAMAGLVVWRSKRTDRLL

Test [3] has as its target T3, human calcitonin (a) receptor (human, UniProt P30988 25-474).
T3 sequence (looked up): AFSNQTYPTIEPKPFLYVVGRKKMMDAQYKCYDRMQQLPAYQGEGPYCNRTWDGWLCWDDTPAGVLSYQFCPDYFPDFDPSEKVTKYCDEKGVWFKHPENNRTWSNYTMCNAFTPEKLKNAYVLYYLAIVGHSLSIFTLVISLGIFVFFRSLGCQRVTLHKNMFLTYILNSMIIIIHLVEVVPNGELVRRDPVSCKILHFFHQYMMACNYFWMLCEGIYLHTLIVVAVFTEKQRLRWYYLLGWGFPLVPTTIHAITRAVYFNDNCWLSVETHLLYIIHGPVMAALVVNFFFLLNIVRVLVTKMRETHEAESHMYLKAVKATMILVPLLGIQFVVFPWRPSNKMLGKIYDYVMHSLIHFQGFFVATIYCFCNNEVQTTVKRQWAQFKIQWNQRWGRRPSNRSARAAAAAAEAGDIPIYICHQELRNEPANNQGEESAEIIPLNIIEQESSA

In test [4] the target is T4, rat calcitonin (a) receptor (rat, UniProt P32214 25-516).
T4 sequence (looked up): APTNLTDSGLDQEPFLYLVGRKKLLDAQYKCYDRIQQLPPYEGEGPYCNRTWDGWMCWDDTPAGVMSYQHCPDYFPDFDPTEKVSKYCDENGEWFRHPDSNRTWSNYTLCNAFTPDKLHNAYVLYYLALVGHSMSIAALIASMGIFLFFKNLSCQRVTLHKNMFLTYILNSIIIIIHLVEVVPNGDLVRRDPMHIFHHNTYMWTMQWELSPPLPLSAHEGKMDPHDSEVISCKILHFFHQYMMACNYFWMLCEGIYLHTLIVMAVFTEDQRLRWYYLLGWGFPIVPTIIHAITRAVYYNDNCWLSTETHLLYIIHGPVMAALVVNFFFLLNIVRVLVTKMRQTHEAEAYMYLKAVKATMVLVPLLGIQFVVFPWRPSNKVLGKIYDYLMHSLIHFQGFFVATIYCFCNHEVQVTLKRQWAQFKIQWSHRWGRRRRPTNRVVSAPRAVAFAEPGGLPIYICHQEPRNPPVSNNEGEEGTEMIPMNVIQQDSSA

Starred links: 1 amine or outer side, 2 acyl side, 3 side chain; linkers in the order of their positions; H or OH if unused. Positions of bridges follow the written chain, without caps; N, C: chain ends. *: point of attachment. C20 diacid = O=C(O)CCCCCCCCCCCCCCCCCCC(=O)*; γGlu = O=C(O)[C@H](CCC(=O)[*:2])N[*:1]

B1: N-alpha-[(S)-4-Carboxy-4-(19-carboxynonadecanoylamino)butyryl]-[Glu1,Gly3,Glu14,Arg18,Ser21,Ser22,Ala25,Pro26,Ser28,Ser29,Glu31,Arg35]-pramlintide (peptide)
peptide: {C20 diacid-γGlu}-ECGTATCATQRLAEFLVRSSSSFGAPLSSTEVGSRTY-NH2
modifications: disulfide 2-7
SMILES: CC(C)C[C@H](NC(=O)[C@H](CCCNC(=N)N)NC(=O)[C@H](CCC(N)=O)NC(=O)[C@@H](NC(=O)[C@H](C)NC(=O)[C@@H]1CSSC[C@H](NC(=O)[C@H](CCC(=O)O)NC(=O)CC[C@H](NC(=O)CCCCCCCCCCCCCCCCCCC(=O)O)C(=O)O)C(=O)NCC(=O)N[C@@H]([C@@H](C)O)C(=O)N[C@@H](C)C(=O)N[C@@H]([C@@H](C)O)C(=O)N1)[C@@H](C)O)C(=O)N[C@@H](C)C(=O)N[C@@H](CCC(=O)O)C(=O)N[C@@H](Cc1ccccc1)C(=O)N[C@@H](CC(C)C)C(=O)N[C@H](C(=O)N[C@@H](CCCNC(=N)N)C(=O)N[C@@H](CO)C(=O)N[C@@H](CO)C(=O)N[C@@H](CO)C(=O)N[C@@H](CO)C(=O)N[C@@H](Cc1ccccc1)C(=O)NCC(=O)N[C@@H](C)C(=O)N1CCC[C@H]1C(=O)N[C@@H](CC(C)C)C(=O)N[C@@H](CO)C(=O)N[C@@H](CO)C(=O)N[C@H](C(=O)N[C@@H](CCC(=O)O)C(=O)N[C@H](C(=O)NCC(=O)N[C@@H](CO)C(=O)N[C@@H](CCCNC(=N)N)C(=O)N[C@H](C(=O)N[C@@H](Cc1ccc(O)cc1)C(N)=O)[C@@H](C)O)C(C)C)[C@@H](C)O)C(C)C
Take B1: the “Amylin receptor human EC50” value in test [1] was found to be 1.44 nM. Besides, the “Amylin receptor rat EC50” value in test [2] came out at 4.51 nM. In addition, the “CTa receptor human EC50” value in test [3] was 0.672 nM. Also, the “CTa receptor rat EC50” value in test [4] is 1.75 nM.
